In CN114904015A (JIANGSU MAIWEIKANG NEW DRUG RES AND DEVELOPMENT CO LTD, dated 2022):
Positions count from the first letter of the chain named. Each block holds one binder with its values, some of them ahead of it.

Experiments:
[1] = molecular target: T1, 人CLDN18.2 (human CLDN18.2), expressed on the cell surface (human, UniProt P56856-2 1-261); assay: cell-based or functional assay
[2] = molecular target: T1, 人CLDN18.2 (human CLDN18.2), expressed …; assay: cell-based or functional assay; remark: listed apart in the source
[3] = molecular target: T1, 人CLDN18.2 (human CLDN18.2), expressed …; assay: FACS (MFI) on CHO/CLDN18.2 cells, from 5 μg/mL in 3-fold dilutions

B2: 8k13-hz35 (antibody, IgG1, V domains shown)
VH: EVQLVQSGAEVKKPGSSVKVSCKASGYAFSNYWMNWVRQAPGQGLEWMGQIYPGSGDTKYSGKFQSRVTITADKSTSTAYMELSSLRSEDTAVYYCARFYYGNVMDYWGQGTLVTVSS
VL: DIVLTQSPDSLAVSLGERATINCKSSQTLLSGGNQKNYLTWYQQKPGQPPKLLIYWASTRESGVPDRFSGSGSGTDFTLTISSLQAEDVAVYYCQQGYSYPLTFGQGTKLEIK
notes: Humanised IgG1 / kappa; also called 本发明的裸抗-2; hz8k13-hz35; not shown: human kappa light chain constant region
binding result [3]: binds

B3: 16k15-hz35 (antibody, IgG1, V domains shown)
VH: EVQLVESGGGLVQPGGSLRLSCAGSGITLSTYAMSWVRQAPGKGLEWVSSIISGGITYYLDSVKGRFTISRDNAKNTLYLQMNSLRAEDTAVYYCARKYHGNALDYWGQGTLVTVSS
VL: B2 VL with L4M, T28S, G32S, K36R, L52K, G97N, S99F
notes: Humanised IgG1 / kappa; also called 本发明的裸抗-1; not shown: human kappa light chain constant region
binding result [3]: binds

Now from value to binder:

CDC EC50(nM), BxPC3 cells stably expressing human CLDN18.2 [1]: 52.2 nM | CDC EC50(nM), CHOK1 cells stably expressing human CLDN18.2 [1]: 30.4 nM | CDC EC50(nM), NCI-N87 cells stably expressing human CLDN18.2 [1]: 474 nM | ADCC reporter (Jurkat FcγRIIIa-FcεRIaγ / NFAT-luciferase) EC50(nM), target-expressing BxPC3 cells [2]: 0.106 nM | ADCC reporter (Jurkat FcγRIIIa-FcεRIaγ / NFAT-luciferase) EC50(nM), target-expressing CHOK1 cells [2]: 0.593 nM | ADCC reporter (Jurkat FcγRIIIa-FcεRIaγ / NFAT-luciferase) EC50(nM), target-expressing NCI-N87 cells [2]: 0.0909 nM
B1: IMAB362 (antibody, human IgG1, kappa, V domains shown)
VH: QVQLQQPGAELVRPGASVKLSCKASGYTFTSYWINWVKQRPGQGLEWIGNIYPSDSYTNYNQKFKDKATLTVDKSSSTAYMQLSSPTSEDSAVYYCTRSWRGNSFDYWGQGTTLTVSS
VL: DIVMTQSPSSLTVTAGEKVTMSCKSSQSLLNSGNQKNYLTWYQQKPGQPPKLLIYWASTRESGVPDRFTGSGSGTDFTLTISSVQAEDLAVYYCQNDYSYPFTFGSGTKLEIKR

CDC EC50(nM), BxPC3 cells stably expressing human CLDN18.2 [1]: 28.5 nM | CDC EC50(nM), CHOK1 cells stably expressing human CLDN18.2 [1]: 21.3 nM | CDC EC50(nM), NCI-N87 cells stably expressing human CLDN18.2 [1]: 57.7 nM | ADCC reporter (Jurkat FcγRIIIa-FcεRIaγ / NFAT-luciferase) EC50(nM), target-expressing BxPC3 cells [2]: 0.304 nM | ADCC reporter (Jurkat FcγRIIIa-FcεRIaγ / NFAT-luciferase) EC50(nM), target-expressing CHOK1 cells [2]: 0.589 nM | ADCC reporter (Jurkat FcγRIIIa-FcεRIaγ / NFAT-luciferase) EC50(nM), target-expressing NCI-N87 cells [2]: 0.15 nM
B4: 8k13-hz24 (antibody, V domains shown, not shown: large carriers)
VH: B2 VH with E1Q, S77N
VL: B2 VL with V89L

CDC EC50(nM), BxPC3 cells stably expressing human CLDN18.2 [1]: 12.2 nM | CDC EC50(nM), CHOK1 cells stably expressing human CLDN18.2 [1]: 5.2 nM | CDC EC50(nM), NCI-N87 cells stably expressing human CLDN18.2 [1]: 17.4 nM | ADCC reporter (Jurkat FcγRIIIa-FcεRIaγ / NFAT-luciferase) EC50(nM), target-expressing BxPC3 cells [2]: 0.176 nM | ADCC reporter (Jurkat FcγRIIIa-FcεRIaγ / NFAT-luciferase) EC50(nM), target-expressing CHOK1 cells [2]: 0.712 nM | ADCC reporter (Jurkat FcγRIIIa-FcεRIaγ / NFAT-luciferase) EC50(nM), target-expressing NCI-N87 cells [2]: 0.0677 nM
B5: 16k15-hz22 (antibody, V domains shown, not shown: large carriers)
VH: B3 VH with N83S
VL: B2 VL with L4M, T28S, G32S, K36R, L52K, V89L, Q96N, G97N, S99F
